Measurements taken from patent publication US20140137294A1, “GLUCOSINOLATE TRANSPORTER PROTEIN AND USES THEREOF” (UNIVERSITY OF COPENHAGEN, priority 2010, published 2014).
Values belong to the molecule of their own block, whether it stands above or below them.

Columns and labels:
Format in all cases: cell-based
AtGTR1 = target: T1, AtGTR1 (Arabidopsis thaliana, UniProt Q944G5); assay: Substrate-induced currents in voltage-clamped Xenopus oocytes expressing AtGTR1; conditions: 100 μM substrate, pH 5, voltage clamped at −50 mV, AtGTR1
T1 construct: A library of Arabidopsis transporters available as full length cDNAs from the RIKEN bioresource center; expressed in transfected cells; host or cells: Xenopus oocytes injected with in vitro transcribed cRNA
T1 sequence (Q944G5 31-636 limits assumed): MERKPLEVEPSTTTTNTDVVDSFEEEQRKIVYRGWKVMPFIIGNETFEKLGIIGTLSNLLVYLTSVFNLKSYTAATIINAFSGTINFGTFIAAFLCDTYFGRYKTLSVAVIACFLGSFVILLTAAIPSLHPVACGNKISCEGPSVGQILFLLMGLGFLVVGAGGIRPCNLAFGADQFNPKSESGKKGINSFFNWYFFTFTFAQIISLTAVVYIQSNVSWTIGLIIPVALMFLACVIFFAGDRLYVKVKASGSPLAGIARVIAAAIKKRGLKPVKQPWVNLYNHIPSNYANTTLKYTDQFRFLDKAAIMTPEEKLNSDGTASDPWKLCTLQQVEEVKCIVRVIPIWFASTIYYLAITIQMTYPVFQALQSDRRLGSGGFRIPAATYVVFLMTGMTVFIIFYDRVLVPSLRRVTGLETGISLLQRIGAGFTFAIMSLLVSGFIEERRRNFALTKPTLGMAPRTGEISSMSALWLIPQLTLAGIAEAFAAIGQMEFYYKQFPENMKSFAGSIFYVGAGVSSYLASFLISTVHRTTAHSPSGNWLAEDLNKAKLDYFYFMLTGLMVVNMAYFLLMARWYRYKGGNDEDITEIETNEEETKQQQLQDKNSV

AtGTR2 = target: T2, AtGTR2 (Arabidopsis thaliana, UniProt Q9LV10); assay: Glucosinolate uptake by AtGTR2 expressing oocytes, LC-MS analysis of oocyte extracts; conditions: data not shown
T2 construct: expressed in transfected cells; host or cells: Xenopus oocytes injected with in vitro transcribed cRNA (vector pNB1u)
T2 sequence (Q9LV10 1-616): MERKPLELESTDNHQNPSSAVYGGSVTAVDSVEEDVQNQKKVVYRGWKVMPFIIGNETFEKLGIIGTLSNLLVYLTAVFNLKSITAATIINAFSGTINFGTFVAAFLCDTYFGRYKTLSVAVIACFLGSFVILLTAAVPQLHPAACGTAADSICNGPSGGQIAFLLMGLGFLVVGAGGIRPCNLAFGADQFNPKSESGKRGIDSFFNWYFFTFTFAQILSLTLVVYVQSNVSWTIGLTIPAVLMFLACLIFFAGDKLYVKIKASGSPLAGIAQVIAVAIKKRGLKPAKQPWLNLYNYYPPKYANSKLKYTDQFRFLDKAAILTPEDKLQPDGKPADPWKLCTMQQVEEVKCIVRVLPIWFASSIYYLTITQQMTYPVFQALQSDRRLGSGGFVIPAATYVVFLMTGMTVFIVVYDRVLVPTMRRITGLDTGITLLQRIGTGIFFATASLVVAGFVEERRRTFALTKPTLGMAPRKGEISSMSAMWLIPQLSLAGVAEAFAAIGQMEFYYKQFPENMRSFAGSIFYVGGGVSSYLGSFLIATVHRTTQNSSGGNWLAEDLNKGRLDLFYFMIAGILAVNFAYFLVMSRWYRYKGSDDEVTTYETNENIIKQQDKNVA

Xenopus oocytes [1] = assay: 4-MTB uptake in Xenopus oocytes expressing Arabidopsis GTR and other NRT/PTR proteins (LC-MS); conditions: pH 5, 1 mM 4-MTB
Xenopus oocytes [2] = assay: 4-MTB import by phosphorylation/dephosphorylation mimicking GTR1 and GTR2 constructs in oocytes (LC-MS); conditions: 100 μM 4-MTB, Kulori pH 5, one hour

Molecule: C[S+]([O-])CCCC/C(=N/OS(=O)(=O)O)S[C@@H]1O[C@H](CO)[C@@H](O)[C@H](O)[C@H]1O (stereo partly drawn)
inward current (AtGTR1): ~10 nA
uptake by AtGTR2 measured by LC-MS analysis of oocyte extracts (AtGTR2): took up

uptake by AtGTR2 measured by LC-MS analysis of oocyte extracts (AtGTR2): took up
Molecule: O=S(=O)(O)O/N=C(\Cc1ccc(O)cc1)S[C@@H]1O[C@H](CO)[C@@H](O)[C@H](O)[C@H]1O [pOHBG, p-hydroxybenzyl-GSL]

B1: AtGTR5: Arabidopsis GTR protein, SEQ ID NO: 10 (protein, listed as Arabidopsis thaliana)
chain: MVLEDRKDGSSLPGRSGSFSKSSPSELDVVDPYKRISSPGSILDAEKVEKKPGGWRAVSFILGNETLERLGSIGLLANFMVYLTKVFHLEQVDAANVINIWSGFTNLTPLVGAYISDTYVGRFKTIAFASFATLLGLITITLTASFPQLHPASCNSQDPLSCGGPNKLQIGVLLLGLCFLSVGSGGIRPCSIPFGVDQFDQRTEEGVKGVASFFNWYYMTFTVVLIITQTVVVYIQDQVSWIIGFSIPTGLMALAVVMFFAGMKRYVYVKPEGSIFSGIAQVIVAARKKRKLKLPAEDDGTVTYYDPAIKSSVLSKLHRSNQFRCLDKAAVVIEGDLTPEGPPADKWRLCSVQEVEEVKCLIRIVPIWSAGIISLAAMTTQGTFTVSQALKMDRNLGPKFEIPAGSLSVISLLTIGIFLPFYDRVFVPFMRRITGHKSGITLLQRIGTGIVFAIFSMIVAGIVERMRRIRSINAGDPTGMTPMSVFWLSPQLILMGLCEAFNIIGQIEFFNSQFPEHMRSIANSLFSLSFAGSSYLSSFLVTVVHKFSGGHDRPDWLNKNLNAGKLDYFYYLIAVLGVVNLVYFWYCARGYRYKVGLPIEDFEEDKSSDDVEMTSKKSMK
4-MTB uptake activity compared to AtGTR1 (Xenopus oocytes [1]): 10%

B2: GTR1 T105A: GTR1 of SEQ ID NO: 2 with T at position 105 for A (protein, listed as Arabidopsis thaliana)
chain: MERKPLEVEPSTTTTNTDVVDSFEEEQRKIVYRGWKVMPFIIGNETFEKLGIIGTLSNLLVYLTSVFNLKSYTAATIINAFSGTINFGTFIAAFLCDTYFGRYKALSVAVIACFLGSFVILLTAAIPSLHPVACGNKISCEGPSVGQILFLLMGLGFLVVGAGGIRPCNLAFGADQFNPKSESGKKGINSFFNWYFFTFTFAQIISLTAVVYIQSNVSWTIGLIIPVALMFLACVIFFAGDRLYVKVKASGSPLAGIARVIAAAIKKRGLKPVKQPWVNLYNHIPSNYANTTLKYTDQFRFLDKAAIMTPEEKLNSDGTASDPWKLCTLQQVEEVKCIVRVIPIWFASTIYYLAITIQMTYPVFQALQSDRRLGSGGFRIPAATYVVFLMTGMTVFIIFYDRVLVPSLRRVTGLETGISLLQRIGAGFTFAIMSLLVSGFIEERRRNFALTKPTLGMAPRTGEISSMSALWLIPQLTLAGIAEAFAAIGQMEFYYKQFPENMKSFAGSIFYVGAGVSSYLASFLISTVHRTTAHSPSGNWLAEDLNKAKLDYFYFMLTGLMVVNMAYFLLMARWYRYKGGNDEDITEIETNEEETKQQQLQDKNSV
4-MTB transport activity (Xenopus oocytes [2]): block the transport activity

B3: GTR1 T105D: GTR1 of SEQ ID NO: 2 with T at position 105 for D (protein, listed as Arabidopsis thaliana)
chain: MERKPLEVEPSTTTTNTDVVDSFEEEQRKIVYRGWKVMPFIIGNETFEKLGIIGTLSNLLVYLTSVFNLKSYTAATIINAFSGTINFGTFIAAFLCDTYFGRYKDLSVAVIACFLGSFVILLTAAIPSLHPVACGNKISCEGPSVGQILFLLMGLGFLVVGAGGIRPCNLAFGADQFNPKSESGKKGINSFFNWYFFTFTFAQIISLTAVVYIQSNVSWTIGLIIPVALMFLACVIFFAGDRLYVKVKASGSPLAGIARVIAAAIKKRGLKPVKQPWVNLYNHIPSNYANTTLKYTDQFRFLDKAAIMTPEEKLNSDGTASDPWKLCTLQQVEEVKCIVRVIPIWFASTIYYLAITIQMTYPVFQALQSDRRLGSGGFRIPAATYVVFLMTGMTVFIIFYDRVLVPSLRRVTGLETGISLLQRIGAGFTFAIMSLLVSGFIEERRRNFALTKPTLGMAPRTGEISSMSALWLIPQLTLAGIAEAFAAIGQMEFYYKQFPENMKSFAGSIFYVGAGVSSYLASFLISTVHRTTAHSPSGNWLAEDLNKAKLDYFYFMLTGLMVVNMAYFLLMARWYRYKGGNDEDITEIETNEEETKQQQLQDKNSV
4-MTB transport activity (Xenopus oocytes [2]): block the transport activity

B4: AtGTR4: Arabidopsis GTR protein, SEQ ID NO: 8 (protein, listed as Arabidopsis thaliana)
chain: MDNEKGTSSSDLTTRQRKPLGWKAMPYIIGNETLERLATFGLMANFMVYMVREYHMDQVQAVTLINTWSALTNFAPIIGAFISDSYTGKFNTIVFGSIAELLGMLVLTFTSLVPNLRPPPCTADQITGQCIPYSYSQLYVLLSGLFLLSVGTGGIRSCSVPFSLDQFDDSTEEGREGSRSFFSWYYTTHTIVQLVSMTLVLYVQNNISWGIGFAIPTVLNFFALLLLFVGTRYYVFVKPEGSVFSGVFKVLVAAYKKRKARFTSGIDYHQPLLETDLQSNKLVLTDQFRFLNKAVIVMNNDEAGNEEWRTCTVRQIEDIKSIISIIPIFASSIIGFLAMNQQQTFTVSQALKMDLQFPGTSYLIPPASITVISLLNIGIWLPFYETVLVRHIENITKQNGGISLLQKVGIGNIFSISTMLISGIVERKRRDLSLNGVKMSVFWLTPQQVLMGFYQVFTIVGLTEFFNKQVPINMRSIGNSLLYLGLSLASYLSSAMVSIVHSVTARGGQSWLTDDIDKSKLDCFYYFIAALSTLNFIFFFWCARRYRYRNYSNEQ
4-MTB uptake activity compared to AtGTR1 (Xenopus oocytes [1]): 10%

B5: GTR2 T117A: GTR2 of SEQ ID No: 4 with T at position 117 for A (protein, listed as Arabidopsis thaliana)
chain: MERKPLELESTDNHQNPSSAVYGGSVTAVDSVEEDVQNQKKVVYRGWKVMPFIIGNETFEKLGIIGTLSNLLVYLTAVFNLKSITAATIINAFSGTINFGTFVAAFLCDTYFGRYKALSVAVIACFLGSFVILLTAAVPQLHPAACGTAADSICNGPSGGQIAFLLMGLGFLVVGAGGIRPCNLAFGADQFNPKSESGKRGIDSFFNWYFFTFTFAQILSLTLVVYVQSNVSWTIGLTIPAVLMFLACLIFFAGDKLYVKIKASGSPLAGIAQVIAVAIKKRGLKPAKQPWLNLYNYYPPKYANSKLKYTDQFRFLDKAAILTPEDKLQPDGKPADPWKLCTMQQVEEVKCIVRVLPIWFASSIYYLTITQQMTYPVFQALQSDRRLGSGGFVIPAATYVVFLMTGMTVFIVVYDRVLVPTMRRITGLDTGITLLQRIGTGIFFATASLVVAGFVEERRRTFALTKPTLGMAPRKGEISSMSAMWLIPQLSLAGVAEAFAAIGQMEFYYKQFPENMRSFAGSIFYVGGGVSSYLGSFLIATVHRTTQNSSGGNWLAEDLNKGRLDLFYFMIAGILAVNFAYFLVMSRWYRYKGSDDEVTTYETNENIIKQQDKNVA
4-MTB transport activity (Xenopus oocytes [2]): block the transport activity

B6: GTR2 T117D: GTR2 of SEQ ID No: 4 with T at position 117 for D (protein, listed as Arabidopsis thaliana)
chain: MERKPLELESTDNHQNPSSAVYGGSVTAVDSVEEDVQNQKKVVYRGWKVMPFIIGNETFEKLGIIGTLSNLLVYLTAVFNLKSITAATIINAFSGTINFGTFVAAFLCDTYFGRYKDLSVAVIACFLGSFVILLTAAVPQLHPAACGTAADSICNGPSGGQIAFLLMGLGFLVVGAGGIRPCNLAFGADQFNPKSESGKRGIDSFFNWYFFTFTFAQILSLTLVVYVQSNVSWTIGLTIPAVLMFLACLIFFAGDKLYVKIKASGSPLAGIAQVIAVAIKKRGLKPAKQPWLNLYNYYPPKYANSKLKYTDQFRFLDKAAILTPEDKLQPDGKPADPWKLCTMQQVEEVKCIVRVLPIWFASSIYYLTITQQMTYPVFQALQSDRRLGSGGFVIPAATYVVFLMTGMTVFIVVYDRVLVPTMRRITGLDTGITLLQRIGTGIFFATASLVVAGFVEERRRTFALTKPTLGMAPRKGEISSMSAMWLIPQLSLAGVAEAFAAIGQMEFYYKQFPENMRSFAGSIFYVGGGVSSYLGSFLIATVHRTTQNSSGGNWLAEDLNKGRLDLFYFMIAGILAVNFAYFLVMSRWYRYKGSDDEVTTYETNENIIKQQDKNVA
4-MTB transport activity (Xenopus oocytes [2]): block the transport activity
